The values that follow come from patent US20250230251A1 (Bristol-Myers Squibb, published 2025).

In assay [1] the target is T1, human IL-18Rβ on cells (human, UniProt O95256 20-599).
T1 sequence: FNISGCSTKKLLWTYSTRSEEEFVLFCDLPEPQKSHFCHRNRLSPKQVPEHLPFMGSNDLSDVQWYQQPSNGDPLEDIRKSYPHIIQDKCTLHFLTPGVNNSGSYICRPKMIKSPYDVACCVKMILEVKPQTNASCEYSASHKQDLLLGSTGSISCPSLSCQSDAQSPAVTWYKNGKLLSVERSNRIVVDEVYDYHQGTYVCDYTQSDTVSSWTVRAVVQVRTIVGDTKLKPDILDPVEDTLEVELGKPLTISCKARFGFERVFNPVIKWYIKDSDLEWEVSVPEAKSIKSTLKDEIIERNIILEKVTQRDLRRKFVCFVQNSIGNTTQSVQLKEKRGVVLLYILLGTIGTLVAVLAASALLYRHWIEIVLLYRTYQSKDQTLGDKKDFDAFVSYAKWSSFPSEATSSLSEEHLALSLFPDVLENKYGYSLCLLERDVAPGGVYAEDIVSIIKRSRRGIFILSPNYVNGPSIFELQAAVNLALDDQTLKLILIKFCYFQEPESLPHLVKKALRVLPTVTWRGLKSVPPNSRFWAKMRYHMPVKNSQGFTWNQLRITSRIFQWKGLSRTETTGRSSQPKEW
The experiment in a line: cell-based or functional assay.

Assay [2] addresses T2, cyIL-18Rβ-HisAvi (cynomolgus monkey).
T2 construct: Soluble analyte in SPR; also called cyno IL-18Rβ; cynomolgus monkey IL-18Rβ
T2 chain: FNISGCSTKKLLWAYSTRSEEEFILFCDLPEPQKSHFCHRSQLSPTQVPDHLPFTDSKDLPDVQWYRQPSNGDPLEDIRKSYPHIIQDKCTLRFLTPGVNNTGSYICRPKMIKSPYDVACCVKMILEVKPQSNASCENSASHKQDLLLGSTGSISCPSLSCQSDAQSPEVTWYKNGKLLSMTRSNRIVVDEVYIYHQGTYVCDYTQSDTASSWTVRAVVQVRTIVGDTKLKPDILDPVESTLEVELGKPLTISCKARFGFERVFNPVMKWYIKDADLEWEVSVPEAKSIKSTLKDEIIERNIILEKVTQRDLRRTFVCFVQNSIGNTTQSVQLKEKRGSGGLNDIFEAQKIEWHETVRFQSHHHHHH
The experiment in a line: SPR T200, mAb on anti-hFc, 37C, pH 6.

Assay [3] addresses T3, huIL-18Rβ-HisAvi (human, UniProt O95256 20-356, biotinylated in the Octet blocking assay).
T3 construct: Soluble analyte in all SPR runs; captured on streptavidin sensors in the Octet assay; also called human IL-18Rβ; human IL-18Rβ-Avi-His
T3 sequence: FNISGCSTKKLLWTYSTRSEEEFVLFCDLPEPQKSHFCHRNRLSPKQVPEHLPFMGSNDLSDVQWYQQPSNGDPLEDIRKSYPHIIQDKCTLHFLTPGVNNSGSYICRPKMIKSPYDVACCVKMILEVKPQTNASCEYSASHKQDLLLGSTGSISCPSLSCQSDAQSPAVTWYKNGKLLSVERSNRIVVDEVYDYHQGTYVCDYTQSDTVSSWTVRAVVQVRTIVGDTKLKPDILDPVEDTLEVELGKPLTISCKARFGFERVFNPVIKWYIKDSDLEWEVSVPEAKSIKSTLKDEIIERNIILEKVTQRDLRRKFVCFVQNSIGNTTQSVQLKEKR
The experiment in a line: SPR T200, mAb on anti-hFc, 37C, pH 6.

Assay [4] has as its target T2, cyIL-18Rβ-HisAvi. The experiment in a line: SPR T200, mAb on anti-hFc, 37C, pH 7.4.
Assay [5] addresses T3, huIL-18Rβ-HisAvi. The experiment in a line: SPR T200, mAb on anti-hFc, 37C, pH 7.4.
In assay [6] the target is T2, cyIL-18Rβ-HisAvi. The experiment in a line: SPR T200, mAb on anti-hFc, 37C, pH 6.
Assay [7] has as its target T3, huIL-18Rβ-HisAvi. The experiment in a line: SPR T200, mAb on anti-hFc, 37C, pH 6. The source holds these as a separate data set.
Assay [8] has as its target T2, cyIL-18Rβ-HisAvi. Kind of assay: SPR T200, mAb on anti-hFc, 37C, pH 7.4.
For assay [9], the target named is T3, huIL-18Rβ-HisAvi. Kind of assay: SPR T200, mAb on anti-hFc, 37C, pH 7.4. The source holds these as a separate data set.

B1: P21-V2 (antibody, human IgG1, kappa, name in Kabat numbering)
heavy: QVQLQQSGPGLVKPSETLSLTCTVSGGSISNYYWTWIRQPPGKGLEWIGYISDSGSTNYNPSLKSRVTISVDTSKNQFSLKLSSVTAADTAVYYCARETIVVRGFYFYVMDVWGQGTTVTVSSASTKGPSVFPLAPSSKSTSGGTAALGCLVKDYFPEPVTVSWNSGALTSGVHTFPAVLQSSGLYSLSSVVTVPSSSLGTQTYICNVNHKPSNTKVDKRVEPKSCDKTHTCPPCPAPEAEGAPSVFLFPPKPKDTLMISRTPEVTCVVVDVSHEDPEVKFNWYVDGVEVHNAKTKPREEQYNSTYRVVSVLTVLHQDWLNGKEYKCKVSNKALPAPIEKTISKAKGQPREPQVYTLPPSREEMTKNQVSLTCLVKGFYPSDIAVEWESNGQPENNYKTTPPVLDSDGSFFLYSKLTVDKSRWQQGNVFSCSVMHEALHNHYTQKSLSLSPG
light: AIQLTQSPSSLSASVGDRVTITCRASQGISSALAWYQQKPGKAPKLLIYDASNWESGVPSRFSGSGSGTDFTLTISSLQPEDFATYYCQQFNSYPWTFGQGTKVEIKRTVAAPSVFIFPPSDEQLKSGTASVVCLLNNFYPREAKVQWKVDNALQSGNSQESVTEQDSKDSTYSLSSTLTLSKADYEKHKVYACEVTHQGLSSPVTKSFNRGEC
notes: built from the chains of the parent P21 with the printed mutation
Turning to B1, the “IC50, LPS+IL-12 dependent IFNg production, human whole blood” value (“IC50 … human whole blood” for short) in [1] came to 1.65 nM. Further, the dissociation constant Kd was found to be 14 nM in [2], 0.7 nM in assay [3], 22 nM in assay [4] and 2.3 nM in assay [5]. The koff in assay [2] was 0.0022 s⁻¹; in assay [3], 0.00043 s⁻¹; in assay [4] it was 0.0032 s⁻¹; in assay [5] it was 0.00053 s⁻¹. Also, the kon in [2] turned out to be 160000 M⁻¹ s⁻¹; in assay [3], 610000 M⁻¹ s⁻¹; in assay [4] it was 150000 M⁻¹ s⁻¹; in assay [5], 230000 M⁻¹ s⁻¹.

B2: P21-V3 (antibody, human IgG1, kappa, name in Kabat numbering)
heavy: QVQLQESGPGLVKPSETLSLTCTVSGGSISNYYWTWIRQPPGKGLEWIGYISDSGSTNYNPSLKSRVTISVDTSKNQFSLKLSSVTAADTAVYYCARETIVVRGFYFYVMDVWGQGTTVTVSSASTKGPSVFPLAPSSKSTSGGTAALGCLVKDYFPEPVTVSWNSGALTSGVHTFPAVLQSSGLYSLSSVVTVPSSSLGTQTYICNVNHKPSNTKVDKRVEPKSCDKTHTCPPCPAPEAEGAPSVFLFPPKPKDTLMISRTPEVTCVVVDVSHEDPEVKFNWYVDGVEVHNAKTKPREEQYNSTYRVVSVLTVLHQDWLNGKEYKCKVSNKALPAPIEKTISKAKGQPREPQVYTLPPSREEMTKNQVSLTCLVKGFYPSDIAVEWESNGQPENNYKTTPPVLDSDGSFFLYSKLTVDKSRWQQGNVFSCSVMHEALHNHYTQKSLSLSPG
light: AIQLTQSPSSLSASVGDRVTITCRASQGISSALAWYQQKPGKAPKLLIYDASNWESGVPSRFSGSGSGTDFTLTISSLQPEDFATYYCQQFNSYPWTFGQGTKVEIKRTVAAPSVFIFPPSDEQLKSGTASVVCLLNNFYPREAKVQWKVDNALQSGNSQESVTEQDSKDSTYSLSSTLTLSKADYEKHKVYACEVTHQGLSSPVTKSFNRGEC
notes: built from the chains of the parent P21 with the printed mutations
B2: the Kd in assay [6] came out at 8.4 nM; in [7] it was 0.66 nM; in [2], 8.4 nM; in [3] it was 0.66 nM; in assay [8], 17 nM; in assay [9] it was 2.3 nM. Moreover, the Kd in [4] stood at 17 nM; in [5], 2.3 nM. Further, the koff stood at 0.0016 s⁻¹ in [6]; 0.00039 s⁻¹ in [7]; 0.0016 s⁻¹ in assay [2]; 0.00039 s⁻¹ in assay [3]; 0.0027 s⁻¹ in assay [8]; 0.00054 s⁻¹ in assay [9]. Further, the koff in assay [4] is 0.0027 s⁻¹; in [5], 0.00054 s⁻¹. Further, the on-rate (kon) in assay [6] was 190000 M⁻¹ s⁻¹; in assay [7], 590000 M⁻¹ s⁻¹; in [2] it was 190000 M⁻¹ s⁻¹; in assay [3] it was 590000 M⁻¹ s⁻¹; in assay [8], 160000 M⁻¹ s⁻¹; in [9], 240000 M⁻¹ s⁻¹. For the same molecule, the kon was 160000 M⁻¹ s⁻¹ in assay [4] and 240000 M⁻¹ s⁻¹ in assay [5]. The “IC50 … human whole blood” value in assay [1] turned out to be 1.63 nM.

B3: P8-V2 (antibody, human IgG1, kappa, name in Kabat numbering)
heavy: QVQLVQSGAEVKKPGASVKVSCKASGYTFTSYYMHWVRQAPGQGLEWMGIINPRGGYTTYAQKFQGRVTMTRDTSTSTVYMELSSLRSEDTAVYYCAKEGRVSPTDYYGMDVWGQGTTVTVSSASTKGPSVFPLAPSSKSTSGGTAALGCLVKDYFPEPVTVSWNSGALTSGVHTFPAVLQSSGLYSLSSVVTVPSSSLGTQTYICNVNHKPSNTKVDKRVEPKSCDKTHTCPPCPAPEAEGAPSVFLFPPKPKDTLMISRTPEVTCVVVDVSHEDPEVKFNWYVDGVEVHNAKTKPREEQYNSTYRVVSVLTVLHQDWLNGKEYKCKVSNKALPAPIEKTISKAKGQPREPQVYTLPPSREEMTKNQVSLTCLVKGFYPSDIAVEWESNGQPENNYKTTPPVLDSDGSFFLYSKLTVDKSRWQQGNVFSCSVMHEALHNHYTQKSLSLSPG
light: not shown
notes: built from the chains of the parent P8 with the printed mutations
Consider B3, for which, in [1], the “IC50 … human whole blood” value was 0.87 nM. In addition, in [3], the affinity, expressed as Kd, was 0.18 nM; the koff was 0.00028 s⁻¹; the kon stood at 1.6e+06 M⁻¹ s⁻¹. In assay [5], this molecule showed a Kd of 0.73 nM, a koff of 0.00049 s⁻¹ and a kon of 680000 M⁻¹ s⁻¹.

B4: P8-V1 (antibody, human IgG1, kappa, V domains shown)
VH: QVQLVQSGAEVKKPGASVKVSCKASGYTFTSYYMHWVRQAPGQGLEWMGIINPRGGYTTYAQKFQGRVTMTRDTSTSTVYMELSSLRSEDTAVYYCAKEGRVSPTDYYGMDVWGQGTTVTVSS
VL: not shown
notes: Variant of P8
As to B4, in assay [1], the “IC50 … human whole blood” value turned out to be 1.09 nM. In assay [3], this molecule yielded a dissociation constant (Kd) of 0.22 nM, an off-rate constant (koff) of 0.00028 s⁻¹ and a kon of 1.3e+06 M⁻¹ s⁻¹. In [5], this molecule registered a dissociation constant (Kd) of 0.8 nM, a koff of 0.00047 s⁻¹ and a kon of 580000 M⁻¹ s⁻¹.

B5: P20-V6 (antibody, human IgG1, kappa, name in Kabat numbering)
heavy: QVQLQESGPGLVKPSETLSLTCTVSGGSINNYYWSWIRQPPGKGLEWIGYIFYSGTTNYNPSLKSRVTISVDTSKNQFSLKLSSVTAADTAVYYCARDVGIAARNSYYYVMDVWGQGTTVTVSSASTKGPSVFPLAPSSKSTSGGTAALGCLVKDYFPEPVTVSWNSGALTSGVHTFPAVLQSSGLYSLSSVVTVPSSSLGTQTYICNVNHKPSNTKVDKRVEPKSCDKTHTCPPCPAPEAEGAPSVFLFPPKPKDTLMISRTPEVTCVVVDVSHEDPEVKFNWYVDGVEVHNAKTKPREEQYNSTYRVVSVLTVLHQDWLNGKEYKCKVSNKALPAPIEKTISKAKGQPREPQVYTLPPSREEMTKNQVSLTCLVKGFYPSDIAVEWESNGQPENNYKTTPPVLDSDGSFFLYSKLTVDKSRWQQGNVFSCSVMHEALHNHYTQKSLSLSPG
light: AIQLTQSPSSLSASVGDRVTITCRASQGISSALAWYQQKPGKAPKFLIYDASSLESGVPSRFSGSGSGTDFTLTISSLQPEDFATYYCQQFNSYPITFGQGTRLEIKRTVAAPSVFIFPPSDEQLKSGTASVVCLLNNFYPREAKVQWKVDNALQSGNSQESVTEQDSKDSTYSLSSTLTLSKADYEKHKVYACEVTHQGLSSPVTKSFNRGEC
notes: built from the chains of the parent P20 with the printed mutation
Consider B5, for which the dissociation constant (Kd) in assay [6] was found to be 0.61 nM; in [7], 0.13 nM; in assay [2] it was 0.61 nM; in [3], 0.13 nM; in assay [8], 2.9 nM; in assay [9], 1 nM. Also, the dissociation constant (Kd) in assay [4] worked out at 2.9 nM; in assay [5] it was 1 nM. Also, the koff is 0.00015 s⁻¹ in assay [6]; 6.8e-05 s⁻¹ in [7]; 0.00015 s⁻¹ in [2]; 6.8e-05 s⁻¹ in assay [3]; 0.00032 s⁻¹ in [8]; 0.00022 s⁻¹ in assay [9]. Further, the koff in [4] came out at 0.00032 s⁻¹; in assay [5], 0.00022 s⁻¹. The on-rate constant (kon) in assay [6] is 250000 M⁻¹ s⁻¹; in assay [7], 520000 M⁻¹ s⁻¹; in assay [2], 250000 M⁻¹ s⁻¹; in assay [3], 520000 M⁻¹ s⁻¹; in [8] it was 110000 M⁻¹ s⁻¹; in assay [9] it was 210000 M⁻¹ s⁻¹. Moreover, the kon amounted to 110000 M⁻¹ s⁻¹ in assay [4] and 210000 M⁻¹ s⁻¹ in [5]. The “IC50 … human whole blood” value in assay [1] stood at 0.85 nM.
